Measured values: publication PMC8213127

Columns and labels:
[1] = target: FlhA from the lateral flagella of Vibrio parahaemolyticus (Vibrio parahaemolyticus); test: cryo-EM structure; purified full-length protein at 0.8-1 mg/ml in TBS with 0.01% LMNG; single particle analysis in Relion; C9 symmetry imposed for Vp-FlhA, D9 for Ye-SctV; only the cytoplasmic domain resolved
[2] = target: SctV from Yersinia enterocolitica (Yersinia enterocolitica); test: as above

Substance	stoichiometry N [1]	stoichiometry N [2]
FlhA from the lateral flagella of Vibrio parahaemolyticus (natural protein)	9	
SctV from Yersinia enterocolitica (natural protein)		9
